Target: mLight (rat)
Conditions: scale: % ΔF/Fo

Question: “[D-Ala^2, N-MePhe^4, Gly-ol]-enkephalin (peptide)” was tested. Which sensor fluorescence response (ΔF/Fo) in HEK293 cells, 500 nM to 100 μM DAMGO did it give?
Answer: 9.06

From article doi:10.1101/2022.06.01.494241
